# Data taken from US20240117030A1 (Pfizer, published 2024).
# Key:
# rat IL-13 = biological target: T1, rat IL-13 (rat, UniProt P42203 19-131, limits assumed); experiment: SPR (Biacore 8K+), trispecific captured on anti-human Fc on a CM5 chip, 200 nM IL-13 injected for 60 s
# T1 construct: also called rt IL-13
# T1 sequence (looked up): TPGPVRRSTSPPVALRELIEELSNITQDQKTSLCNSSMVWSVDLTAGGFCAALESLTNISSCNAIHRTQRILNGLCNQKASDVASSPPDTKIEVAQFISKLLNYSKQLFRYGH
# Experimental: (§1) All experiments were performed using a Biacore 8K+ instrument (GE HealthCare, Marlborough, MA). Anti-human Fc (Jackson Immunoresearch) or anti-mouse Fc (GE HealthCare, Marlborough, MA) was immobilized on a CM5 sensor chip using a standard amine coupling protocol provided by GE HealthCare. […] The association and dissociation phases were 60 seconds and 300 seconds, respectively. At the end of the dissociation phase, the surface containing anti-human or anti-mouse Fc was regenerated using one 30 second pulse of 3M MgCl₂ followed by one 30 second pulse of 10 mM glycine pH 1.7.
# mouse IL-13 [1] = biological target: T2, mouse IL-13 (mouse, UniProt P20109 26-131, limits assumed); experiment: as above
# T2 construct: also called mu IL-13
# T2 sequence (looked up): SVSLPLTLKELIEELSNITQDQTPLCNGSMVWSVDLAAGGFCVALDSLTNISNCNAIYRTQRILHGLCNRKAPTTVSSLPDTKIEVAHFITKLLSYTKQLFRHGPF
# Experimental: as §1
# human IL-4 = biological target: T3, human IL-4 (human, UniProt P05112 25-153); experiment: cell-based or functional assay
# T3 sequence (looked up): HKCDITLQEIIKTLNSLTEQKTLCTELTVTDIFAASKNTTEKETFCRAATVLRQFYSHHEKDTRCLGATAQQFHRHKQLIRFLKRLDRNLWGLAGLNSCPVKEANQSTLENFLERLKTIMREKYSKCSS
# cynomolgus monkey IL-13 [2] = biological target: T4, cynomolgus monkey IL-13 (cynomolgus monkey, UniProt Q0PW92 19-132); experiment: cell-based or functional assay
# T4 sequence (Q0PW92 entry or part of it limits assumed): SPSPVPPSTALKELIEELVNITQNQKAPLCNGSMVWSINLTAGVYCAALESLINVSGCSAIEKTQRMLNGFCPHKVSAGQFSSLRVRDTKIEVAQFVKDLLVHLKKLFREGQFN
# human IL-13 [3] = biological target: T5, human IL-13 (human, UniProt P35225 35-146); experiment: cell-based or functional assay
# T5 sequence (P35225 35-146 limits assumed, form in doubt): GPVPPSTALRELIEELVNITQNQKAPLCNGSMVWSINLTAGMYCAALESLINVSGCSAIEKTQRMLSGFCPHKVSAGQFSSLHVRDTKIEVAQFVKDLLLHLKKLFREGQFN
# cynomolgus monkey IL-13 [4] = biological target: T4, cynomolgus monkey IL-13; experiment: KinExA, fixed antigen
# Experimental: (§2) Samples were prepared in PBS containing 0.1% sodium azide and 1.0 mg/ml BSA. The fixed antigen assay method was used to determine binding affinity. […] Each trispecific and IL-4 cytokine were equilibrated for at least 72 hours at room temperature, then passed through a flow cell containing Polymethylmethacrylate (PMMA) beads coated with anti-hIL-4 Ab-0002 (Pfizer) that contains the same IL-4 binding domain as the trispecifics. […] Data analysis was performed with KinExA Pro software version 4.3.11 (Sapidyne). […] The ‘drift correction’ fitting option was used when responses varied between replicate injections. Two curves were obtained in independent experiments and analyzed using the ‘n-curve analysis’ tool to obtain global best fit values for the KD and active concentration of IL-4 cytokine. The software reports each best fit value along with a 95% confidence interval.
# (§3) Samples were prepared in PBS containing 0.1% sodium azide and 1.0 mg/ml BSA. A fixed antigen assay method was used to determine binding affinity.
# cynomolgus monkey IL-4 = biological target: T6, cynomolgus monkey IL-4 (cynomolgus monkey, UniProt P79339 25-153); experiment: KinExA, fixed antigen
# T6 construct: mature; also called cy IL-4; cyno IL-4
# T6 sequence (looked up): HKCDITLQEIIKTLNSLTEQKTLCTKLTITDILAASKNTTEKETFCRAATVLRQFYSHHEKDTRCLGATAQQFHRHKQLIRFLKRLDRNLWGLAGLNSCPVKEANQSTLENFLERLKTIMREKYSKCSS
# Experimental: as §2, §3
# rat IL-4 = biological target: T7, rat IL-4 (rat, UniProt P20096 25-147, limits assumed); experiment: SPR (Biacore 8K+), trispecific captured on anti-human Fc on a CM5 chip, 200 nM IL-4 injected for 60 s
# T7 construct: also called rt IL-4
# T7 sequence (looked up): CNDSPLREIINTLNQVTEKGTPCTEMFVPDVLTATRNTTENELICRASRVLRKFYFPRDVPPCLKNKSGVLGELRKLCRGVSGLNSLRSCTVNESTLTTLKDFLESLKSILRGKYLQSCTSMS
# Experimental: (§4) All experiments were performed using a Biacore 8K+instrument (GE HealthCare, Marlborough, MA). Anti-human Fc (Jackson Immunoresearch) or anti-mouse Fc (GE HealthCare, Marlborough, MA) was immobilized on a CM5 sensor chip using a standard amine coupling protocol provided by GE HealthCare. […] The association and dissociation phases were 60 seconds and 300 seconds, respectively. At the end of the dissociation phase, the surface containing anti-human or anti-mouse Fc was regenerated using one 30 second pulse of 3M MgCl₂ followed by one 30 second pulse of 10 mM glycine pH 1.7.
# mouse IL-4 = biological target: T8, mouse IL-4 (mouse, UniProt P07750 23-140); experiment: as above
# T8 construct: also called mu IL-4
# T8 sequence (looked up): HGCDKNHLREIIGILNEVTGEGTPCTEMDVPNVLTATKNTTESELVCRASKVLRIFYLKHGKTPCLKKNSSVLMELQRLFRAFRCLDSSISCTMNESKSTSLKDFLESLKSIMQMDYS
# Experimental: as §4
# rat IL-33 = biological target: T9, rat IL-33 (rat, UniProt Q66H70 109-264, limits assumed); experiment: SPR (Biacore T-200, 37 C, buffer with 3 mM DTT), trispecific captured on Protein A/G on a CM5 chip, 200 nM IL-33 injected for 60 s (concentration from Example 75)
# T9 construct: also called rat IL-33 WT
# T9 sequence (looked up): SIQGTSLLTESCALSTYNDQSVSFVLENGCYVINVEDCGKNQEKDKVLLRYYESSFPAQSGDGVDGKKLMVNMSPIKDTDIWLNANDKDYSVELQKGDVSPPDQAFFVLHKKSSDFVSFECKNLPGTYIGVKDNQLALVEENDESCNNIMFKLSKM
# Experimental: (§5) Experiments were done at 37° C. with a collection rate of 10 Hz using HBS-EP+ pH 7.4, containing 3 mM DTT as running and dilution buffer. […] An anti-rat and mouse positive control antibody M36 (Pfizer, L4295010-051) diluted to 10 μgs/mL was captured on flow cell 2 for 60 sec at 10 μLs/min. Flow cell 1 was used as a reference. Binding was evaluated by injecting 200 nM dilutions of each cytokine over all 4 flow cells for 60 sec at 50 μL/min followed by a 300 sec dissociation. The surface was regenerated with a single 60 sec injection of 10 mM Glycine pH 1.5 at 50 μL/min. The data was double referenced and an overlay of the resulting sensorgrams (FIG. 39) was prepared using Biacore T-200 Analysis Software version 3.2.
# murine IL-33 = biological target: T10, murine IL-33 (mouse, UniProt Q8BVZ5 109-266); experiment: as above
# T10 construct: also called mouse IL-33 WT
# T10 sequence (looked up): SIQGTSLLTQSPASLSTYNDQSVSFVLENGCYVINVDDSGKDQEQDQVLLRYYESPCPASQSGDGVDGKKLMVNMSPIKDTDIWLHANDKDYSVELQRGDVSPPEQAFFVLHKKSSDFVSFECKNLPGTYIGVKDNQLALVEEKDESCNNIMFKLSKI
# Experimental: as §5
# human IL-13 [5] = biological target: T5, human IL-13; experiment: SPR 37°C, antibody captured by anti-human IgG, human IL-13 1.56-50 nM
# Experimental: The affinity values (KD) were determined using Surface Plasmon Resonance (SPR) for 10 lead variants identified from bioassay screening.
# human IL-13 [6] = biological target: T5, human IL-13; experiment: cell-based or functional assay; remark: listed apart in the source
# cynomolgus monkey IL-13 [7] = biological target: T4, cynomolgus monkey IL-13; experiment: ELISA: competition with biotinylated human IL-13 for binding to IL13-0001
# Text: (§6) Recombinant human, mouse, rat, and dog IL 13 were purchased from R&D Systems (Minneapolis, MN). Recombinant sheep and rabbit IL-13 were produced by Pfizer Global Biotechnologies (PGBT, Cambridge, MA). Recombinant cynomolgus monkey IL 13 was purchased from Sino Biological (Beijing, China).
# mouse IL-13 [8] = biological target: T2, mouse IL-13; experiment: as above
# Text: as §6
# dog IL-13 = biological target: T11, dog IL-13 (dog, UniProt Q9N0W9 19-131, limits assumed); experiment: as above
# T11 sequence (looked up): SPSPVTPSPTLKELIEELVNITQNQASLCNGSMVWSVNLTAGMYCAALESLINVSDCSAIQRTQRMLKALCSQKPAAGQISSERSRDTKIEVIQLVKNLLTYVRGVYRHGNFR
# Text: as §6
# human IL-13 [9] = biological target: T5, human IL-13; experiment: cell-based or functional assay; remark: listed apart in the source
binder,measurement,setting,value
"IL13433-1258 (trispecific antibody, Tri-Fab-Fc: SFab HC(3) IL-33, DFab LC(1)-HC(2) IL-13/IL-4, SFab LC(3), DFab LC(2), modified Fd(1); EE/RR, LS) heavy: EVQLVESGGGLVQPGGSLRLSCAASGFTFSSYWMYWVRQAPGKGLEWVAAITPNAGEDYYPESVKGRFTISRDNAKNSLYLQMNSLRAEDTAVYYCARGQYYYTKYSLGYWGQGTLVTVSSASTKGPSVFPLAPSSKSTSGGTAALGCLVKDYFPEPVTVSWNSGALTSGVHTFPAVLQSSGLYSLSSVVTVPSSSLGTQTYICNVNHKPSNTKVDKKVEPKSCRKTHTCPPCPAPEAAGAPSVFLFPPKPKDTLMISRTPEVTCVVVDVSHEDPEVKFNWYVDGVEVHNAKTKPREEQYNSTYRVVSVLTVLHQDWLNGKEYKCKVSNKALPAPIEKTISKAKGQPREPQVYTLPPSREEMTKNQVSLTCLVKGFYPSDIAVEWESNGQPENNYKTTPPVLDSDGSFFLYSRLTVDKSRWQQGNVFSCSVLHEALHSHYTQKSLSLSPGK chain 1: DIQMTQSPSSLSASVGDRVTITCKASESVDHFGWSLVHWYQQKPGKAPKLLIYRASNLESGVPSRFSGSGSGTDFTLTISSLQPEDFATYYCQQSNEDPWTFGGGTKVEIKRTVAAPSVFIFPPSDEQLKSGTASVVCLLNNFYPREAKVQWKVDNALQSGNSQESVTEQDSKDSTYSLSSTLTLSKADYEKHKVYACEVTHQGLSSPVTKSFNRGECGGGGSEVTLRESGPALVKPTQTLTLTCTFSGFSLSNFGEGLSWIRQPPGKGLEWLAHIYWDDDKRYNPSLKSRLTISKDTSRNQVVLTMTNMDPVDTATYYCARRETVFYWYFDVWGQGTTVTVSSASTKGPSVFPLAPSSKSTSGGTAALGCLVKDYFPEPVTVSWNSGALTSGVHTFPAVLQSSGLYSLSSVVTVPSSSLGTQTYICNVNHKPSNTKVDKKVEPKSCEKTHTCPPCPAPEAAGAPSVFLFPPKPKDTLMISRTPEVTCVVVDVSHEDPEVKFNWYVDGVEVHNAKTKPREEQYNSTYRVVSVLTVLHQDWLNGKEYKCKVSNKALPAPIEKTISKAKGQPREPQVYTLPPSREEMTKNQVSLTCEVKGFYPSDIAVEWESNGQPENNYKTTPPVLDSDGSFFLYSKLTVDKSRWQQGNVFSCSVLHEALHSHYTQKSLSLSPGK light 1: DIQMTQSPSSLSASVGDRVTITCRASQPIHNHLDWYQQKPGKAPKLLIYFGKNLQEGVPSRFSGSGSGTDFTLTISSLQPEDFATYYCFQYKKGWSFGGGTKVEIKRTVAAPSVFIFPPSDEQLKSGTASVVCLLNNFYPREAKVQWKVDNALQSGNSQESVTEQDSKDSTYSLSSTLTLSKADYEKHKVYACEVTHQGLSSPVTKSFNRGEC light 2: DIQMTQSPSSLSASVGDRVTITCRASQSVDEEGDSYMNWYQQKPGKAPKLLIYAASNLESGVPSRFSGSGSGTDFTLTISSLQPEDFATYYCQQSNKDPPTFGGGTKVEIKRTVAAPSVFIFPPSDEQLKSGTASVVCLLNNFYPREAKVQWKVDNALQSGNSQESVTEQDSKDSTYSLSSTLTLSKADYEKHKVYACEVTHQGLSSPVTKSFNRGEC chain 2: EVQLVESGGGLVQPGGSLRLSCAASGFTFSSYAMSWVRQAPGKGLEWVASISSGDTTYYPDSVKGRFTISRDNAKNSLYLQMNSLRAEDTAVYYCARNEGYYFGLTLWGQGTLVTVSSASTKGPSVFPLAPSSKSTSGGTAALGCLVKDYFPEPVTVSWNSGALTSGVHTFPAVLQSSGLYSLSSVVTVPSSSLGTQTYICNVNHKPSNTKVDKKVEPKSC",binding result,rat IL-13,no binding (tested: 200 nM)
same,binding result,mouse IL-13 [1],no binding (tested: 200 nM)
same,fold IL-4 neutralization activity over dupilumab (monocyte CD23 bioassay),human IL-4,~10 fold
same,fold lower potency than mAb IL4-1040 (monocyte CD23 bioassay),human IL-4,~3.1 fold
same,fold reduced neutralization compared to the human cytokine (monocyte CD23 bioassay),cynomolgus monkey IL-13 [2],~4.5 fold
same,fold IL-13 neutralization activity over dupilumab (monocyte CD23 bioassay),human IL-13 [3],7.9 fold
same,fold lower potency than IL13-0001 (monocyte CD23 bioassay),human IL-13 [3],~2.7 fold
same,fold of the human IL-13 affinity value,cynomolgus monkey IL-13 [4],≤ 2 fold
same,fold weaker than the human IL-4 affinity value,cynomolgus monkey IL-4,~6.2 fold
same,binding result,rat IL-4,no binding (tested: 200 nM)
same,binding result,mouse IL-4,no binding (tested: 200 nM)
same,binding result,rat IL-33,no binding (tested: 200 nM)
same,binding result,murine IL-33,no binding (tested: 200 nM)
"IL13-0001 (antibody, human IgG1, kappa, V domains shown, also called IL13433-0001; 1RVHC9-VLA4) VH: EVQLVESGGGLVQPGGSLRLSCAASGFTFSSYAMSWVRQAPGKGLEWVASISSGDTTYYPDSVKGRFTISRDNAKNSLYLQMNSLRAEDTAVYYCARNEGYYFGLTLWGQGTLVTVSS VL: DIQMTQSPSSLSASVGDRVTITCKASESVDHFGWSLVHWYQQKPGKAPKLLIYRASNLESGVPSRFSGSGSGTDFTLTISSLQPEDFATYYCQQSNEDPWTFGGGTKVEIKR",Kd,human IL-13 [5],0.0577 nM
same,CD23: Fold bioactivity relative to IL13-0001,human IL-13 [6],1 fold
same,CD23: Fold bioactivity relative to IL13-1307,human IL-13 [6],29.1 fold
same,CD23 IC50 [pM],human IL-13 [6],10.5 pM
same,pSTAT6: Fold bioactivity relative to IL13-0001,human IL-13 [6],1 fold
same,pSTAT6: Fold bioactivity relative to IL13-1307,human IL-13 [6],1.5 fold
same,pSTAT6 IC50 [pM],human IL-13 [6],92 pM
same,binding result,cynomolgus monkey IL-13 [7],binds
same,binding result,mouse IL-13 [8],no binding
same,binding result,dog IL-13,no binding
same,CD23: Fold versus IL13-0001,human IL-13 [9],1 fold
same,CD23 IC50 [pM] Ave. n = 2,human IL-13 [9],6 pM
